The target in the assay is T1, progesterone receptor (PR) (human, UniProt P06401 1-933, limits assumed).
T1 construct: also called total PR; PR-A
T1 sequence (looked up): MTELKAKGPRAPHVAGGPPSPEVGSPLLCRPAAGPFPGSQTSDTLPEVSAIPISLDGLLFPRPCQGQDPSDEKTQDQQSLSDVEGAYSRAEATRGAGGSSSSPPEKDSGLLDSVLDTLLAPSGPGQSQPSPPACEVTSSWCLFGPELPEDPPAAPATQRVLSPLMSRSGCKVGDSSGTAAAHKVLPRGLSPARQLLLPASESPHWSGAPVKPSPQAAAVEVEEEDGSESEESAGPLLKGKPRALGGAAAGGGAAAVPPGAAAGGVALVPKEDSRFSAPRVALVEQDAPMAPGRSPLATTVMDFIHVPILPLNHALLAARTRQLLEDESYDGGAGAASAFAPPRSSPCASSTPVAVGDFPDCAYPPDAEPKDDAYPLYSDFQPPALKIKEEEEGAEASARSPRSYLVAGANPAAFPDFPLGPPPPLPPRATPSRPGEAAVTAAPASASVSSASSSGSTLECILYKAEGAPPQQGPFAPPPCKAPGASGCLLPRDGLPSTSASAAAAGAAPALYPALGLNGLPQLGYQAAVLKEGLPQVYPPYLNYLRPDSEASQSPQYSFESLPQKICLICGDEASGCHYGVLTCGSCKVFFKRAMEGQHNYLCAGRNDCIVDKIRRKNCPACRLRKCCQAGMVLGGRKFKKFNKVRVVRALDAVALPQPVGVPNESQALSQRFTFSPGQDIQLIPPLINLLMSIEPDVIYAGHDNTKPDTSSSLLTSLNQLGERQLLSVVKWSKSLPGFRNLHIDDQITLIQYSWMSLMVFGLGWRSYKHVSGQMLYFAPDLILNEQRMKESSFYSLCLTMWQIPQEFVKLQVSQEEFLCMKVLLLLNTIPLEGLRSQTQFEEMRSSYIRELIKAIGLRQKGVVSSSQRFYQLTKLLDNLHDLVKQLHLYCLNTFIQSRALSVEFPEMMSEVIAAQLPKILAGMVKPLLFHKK
The experiment in a line: co-immunoprecipitation from breast cancer cell whole cell lysates.

B1: RUNX2 (other, UniProt Q13950 1-521, looked up)
chain: MASNSLFSTVTPCQQNFFWDPSTSRRFSPPSSSLQPGKMSDVSPVVAAQQQQQQQQQQQQQQQQQQQQQQQEAAAAAAAAAAAAAAAAAVPRLRPPHDNRTMVEIIADHPAELVRTDSPNFLCSVLPSHWRCNKTLPVAFKVVALGEVPDGTVVTVMAGNDENYSAELRNASAVMKNQVARFNDLRFVGRSGRGKSFTLTITVFTNPPQVATYHRAIKVTVDGPREPRRHRQKLDDSKPSLFSDRLSDLGRIPHPSMRVGVPPQNPRPSLNSAPSPFNPQGQSQITDPRQAQSSPPWSYDQSYPSYLSQMTSPSIHSTTPLSSTRGTGLPAITDVPRRISDDDTATSDFCLWPSTLSKKSQAGASELGPFSDPRQFPSISSLTESRFSNPRMHYPATFTYTPPVTSGMSLGMSATTHYHTYLPPPYPGSSQSQSGPFQTSSTPYLYYGTSSGSYQFPMVPGGDRSPSRMLPPCTTTSNGSTLLNPNLPNQNDGVDADGSHSSSPTVLNSSGRMDESVWRPY
notes: also called runt-related transcription factor 2
With B1, the binding result is recorded as “no binding”.

The values above are taken from US20180292409A1 (REGENTS OF THE UNIVERSITY OF MINNESOTA, published 2018).
